Results from patent US20200147235A1 (AbbVie / Abbott, published 2020).
Positions count from the first letter of the chain named.

T1: Human CD98 ECD with N-terminal His-tag (human, UniProt P08195 105-529)
T1 construct: The entry includes the linker and the polyhistidine tag; also called huCD98 ECD
T1 sequence: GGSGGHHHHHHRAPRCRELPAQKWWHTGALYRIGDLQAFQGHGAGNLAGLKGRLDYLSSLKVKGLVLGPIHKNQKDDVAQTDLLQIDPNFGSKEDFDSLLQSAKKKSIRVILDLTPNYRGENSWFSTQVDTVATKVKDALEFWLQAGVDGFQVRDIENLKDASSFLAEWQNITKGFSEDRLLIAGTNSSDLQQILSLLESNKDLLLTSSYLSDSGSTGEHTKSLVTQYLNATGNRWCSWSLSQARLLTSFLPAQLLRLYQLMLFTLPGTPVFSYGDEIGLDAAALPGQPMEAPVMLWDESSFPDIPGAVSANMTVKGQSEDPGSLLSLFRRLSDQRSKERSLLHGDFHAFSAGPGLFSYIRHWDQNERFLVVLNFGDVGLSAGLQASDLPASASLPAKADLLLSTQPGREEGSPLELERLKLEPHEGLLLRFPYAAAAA

T2: Cynomolgus monkey CD98 ECD with C-terminal His-tag (SEQ ID NO: 127) (cynomolgus monkey, UniProt P08195 105-529 (human entry))
T2 construct: The entry includes the linker and the polyhistidine tag; also called cyCD98 ECD
T2 chain: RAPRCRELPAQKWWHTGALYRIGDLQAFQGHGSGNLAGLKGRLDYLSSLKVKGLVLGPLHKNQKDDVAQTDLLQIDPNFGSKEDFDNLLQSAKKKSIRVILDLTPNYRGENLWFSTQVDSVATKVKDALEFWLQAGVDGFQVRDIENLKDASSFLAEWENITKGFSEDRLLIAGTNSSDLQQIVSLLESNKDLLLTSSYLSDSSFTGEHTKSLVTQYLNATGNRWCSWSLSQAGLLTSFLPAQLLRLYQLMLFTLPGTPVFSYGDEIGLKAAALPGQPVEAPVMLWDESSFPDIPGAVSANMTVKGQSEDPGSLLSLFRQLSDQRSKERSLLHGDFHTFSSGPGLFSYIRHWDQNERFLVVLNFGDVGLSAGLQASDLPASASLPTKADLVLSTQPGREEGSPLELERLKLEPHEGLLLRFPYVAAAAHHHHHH

T3: Human CD98 ECD with C-terminal His-tag (human, UniProt P08195 105-529)
T3 construct: also called huCD98 ECD; recombinant human CD98 extracellular domain
T3 sequence: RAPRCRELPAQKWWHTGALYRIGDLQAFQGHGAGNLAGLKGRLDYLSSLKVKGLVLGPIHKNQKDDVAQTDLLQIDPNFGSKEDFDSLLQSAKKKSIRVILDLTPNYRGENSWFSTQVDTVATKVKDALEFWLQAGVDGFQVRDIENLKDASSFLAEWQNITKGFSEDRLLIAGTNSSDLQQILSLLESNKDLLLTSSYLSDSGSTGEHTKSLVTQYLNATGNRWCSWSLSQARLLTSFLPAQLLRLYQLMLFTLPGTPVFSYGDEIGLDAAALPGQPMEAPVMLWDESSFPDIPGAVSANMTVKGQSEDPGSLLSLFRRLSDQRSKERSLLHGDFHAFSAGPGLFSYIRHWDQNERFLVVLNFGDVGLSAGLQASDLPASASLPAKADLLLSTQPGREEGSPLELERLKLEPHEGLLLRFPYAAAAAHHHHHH

T4: Cynomolgus monkey CD98 ECD with C-terminal His-tag (cynomolgus monkey, UniProt P08195 105-529 (human entry))
T4 construct: also called cyCD98 ECD; recombinant cynomolgus monkey CD98 extracellular domain
T4 chain: T2 chain

B1: huAb101 (antibody, V domains shown)
VH: EVQLVESGGGLVKPGGSLRLSCATSGFTFIDYYMSWVRQAPGKGLEWLGFIRNKANRYTTEYSASVKGRFTISRDNSKSILYLQMNSLKTEDTAVYYCTRDRPAWFVYWGQGTLVTVSS
VL: DIVMTQTPLSLPVTPGEPASISCKSSQSLLYSSNQKNYLAWYLQKPGQSPQLLIYWASTRESGVPDRFSGSGSGTDFTLKISRVEAEDVGVYYCQQYYSYPYTFGGGTKVEIK
notes: Framework re-engineered humanized clone (parent huAb3v1), expressed as full-length IgG
B2: huAb107 (antibody, V domains shown)
VH: EVQLVESGGGLVQPGGSLRLSCAASGFTFSDYTMAWVRQAPGKGLEWVATIIYSGRGTYYRDAVKGRFTISRDNAKNTLYLQMNSLRAEDTAVYYCARQSDDTYYYWGYFDYWGQGTMVTVSS
VL: B1 VL with S22N, Y31F, S33G, E61Q, V91I, S99D, Y100V, G106Q, V110L
notes: Framework re-engineered humanized clone (parent huAb15v2), expressed as full-length IgG
B3: huAb102 (antibody, human IgG1, kappa, L234A L235A, V domains shown)
VH: B1 VH with K13Q
VL: DIVMTQTPLSLPVTPGEPASISCKSSQSLLYSSNQKNYLAWYLQKPGQSPQLLIYWASTRESGVPDRFSGSGSGTDFTLKISRVEAEDVGVYYCQQYYSYPYTFGGGTKVEIKR
notes: Framework re-engineered humanized clone (parent huAb3v1); also called CL-huAb102
B4: huAb103 (antibody, V domains shown)
VH: B1 VH with N56Y, R57G
VL: B1 VL
notes: Framework re-engineered humanized clone (parent huAb3v2), expressed as full-length IgG; also called haAb103
B5: huAb104 (antibody, human IgG1, kappa, L234A L235A, V domains shown)
VH: B1 VH with K13Q, N56Y, R57G
VL: B3 VL
notes: Framework re-engineered humanized clone (parent huAb3v2); also called CL-huAb104
B6: Anti-CD98 murine hybridoma antibody Ab4 (antibody, V domains shown)
VH: EVKLVESGGGLVQPGGSLRLSCTTSGFTFTDYYMSWVRQPPGKALEWLGFIRNKATIYTTEYSASVKGRFTISRDNSQSILYLQMNTLRAEDSATYYCARASYGNSEGWFAYWGQGTLVTVSA
VL: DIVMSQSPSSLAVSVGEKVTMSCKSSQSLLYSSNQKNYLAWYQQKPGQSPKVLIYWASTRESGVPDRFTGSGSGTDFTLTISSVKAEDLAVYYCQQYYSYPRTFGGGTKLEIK
B7: Anti-CD98 murine hybridoma antibody Ab5 (antibody, V domains shown)
VH: B6 VH with T23A, S35T, T56N, I57G, Q78L, G104V
VL: DIVMSQSPSSLAVSVGEKVTMSCKSSQSLLYSSNQKNYLAWYQQKLGQSPKLLIYWASTRESGVPDRFTGSGSGTDFTLTISSVKAEDLAVYYCQHYYSYPRTFGGGTKLEIK
B8: Anti-CD98 murine hybridoma antibody Ab2 (antibody, V domains shown)
VH: B6 VH with T23A, T28N, T56N, I57G, N76D
VL: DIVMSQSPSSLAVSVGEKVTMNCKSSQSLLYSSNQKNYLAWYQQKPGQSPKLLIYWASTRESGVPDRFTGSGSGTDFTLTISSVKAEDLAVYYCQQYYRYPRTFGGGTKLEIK
B9: Anti-CD98 rat hybridoma antibody Ab11 (antibody, V domains shown)
VH: EVQLVESGGGLVQPGRSLKLSCAASGFTFSDYAMAWVRQAPKKGLEWVAGIIYDGRGTYYRDSVKGRFTISRDNAKSTLYLQMDSLRSEDTATYYCARQGDGTYYYWGYFDYWGQGVMVTVSS
VL: DIVMTQSPSSLAVSAGETVTINCRSSQSLLSSGNQKNYLAWYQQKPGQSPKLLIYWASTRQSGVPDRFIGSGSGTDFTLTISSVQAEDLAIYYCQQYYDTPYTFGAGTKLELK
B10: Anti-CD98 rat hybridoma antibody Ab10 (antibody, V domains shown)
VH: B9 VH with G44S, G50T, Y60C, Y105H
VL: B9 VL with R24K, L110V, E111D
B11: Anti-CD98 rat hybridoma antibody Ab15 (antibody, V domains shown)
VH: B9 VH with A33T, G50T, G100S
VL: B9 VL with R24K, S31F, S82R, T100S
B12: Anti-CD98 murine hybridoma antibody Ab3 (antibody, V domains shown)
VH: EVKLVESGGGLVQPGNSLRLSCATSGFTFIDYYMSWVRQSPGKALEWLGFIRNKANGYTTEYSASVKGRFTISRDNSQSILYLQMDTLRAEDSATYYCTRDRPAWFVYWGQGTLVTVSA
VL: B7 VL with L46P, I81F, K85R, H96Q, R102Y
B13: Anti-CD98 rat hybridoma antibody Ab7 (antibody, V domains shown)
VH: QVQLKESGPGLVQPSQTLSLTCTVSGFSLSTYGVIWVRQPPGKGLEWMGVIWANGNTNYNSTLKSRLSISRDTSKSQVYLKMNSLQTEDTATYYCARHYYDGTYYYGYFDYWGQGVMVTVSS
VL: DIVMTQTPSSQAVSAGEKVTMNCKSSQSLLYSENKKNYLAWYQQKPGQSPKLLIYWASTRESGVPDRFIGSGSGTDFTLTISSVQAEDLAVYYCQQYYYFPYTFGPGTKLELK
B14: Anti-CD98 rat hybridoma antibody Ab9 (antibody, V domains shown)
VH: B13 VH with T23A, T31N, G49A, A53T
VL: B13 VL with N22S, S32T, I69M, T103M, P106A
B15: Anti-CD98 rat hybridoma antibody Ab6 (antibody, V domains shown)
VH: B13 VH with V12A, V37L, A53T, K75E, K81Q, T103A
VL: B13 VL with N22S, P106A

biological target: T1, Human CD98 ECD with N-terminal His-tag; experiment: SPR (Biacore), recombinant CD98 ECD

Binder	Kd [nM]	koff [s⁻¹]	kon [M⁻¹ s⁻¹]
B1	6.1	0.0018	290000
B2	0.33	3.8e-05	110000
B3	5.5	0.0018	330000
B4	3.4	0.00059	180000
B5	2	0.00091	450000

Biological target: T2, Cynomolgus monkey CD98 ECD with …
Experiment: SPR (Biacore), recombinant CD98 ECD

Binder	Kd [nM]	koff [s⁻¹]	kon [M⁻¹ s⁻¹]
B1	23	0.00067	30000
B2	2.7	8.7e-05	33000
B3	21	0.00068	32000
B4	14	0.00044	31000
B5	14	0.00048	34000

biological target: T3, Human CD98 ECD with C-terminal His-tag; experiment: SPR Biacore, anti-Fc capture of mAb, CD98 ECD analyte
Description: (§1) The binding kinetics of these purified mouse and rat monoclonal anti-CD98 antibodies for purified recombinant CD98 protein (extracellular domain. ECD) were determined by surface plasmon resonance-based measurements made on Biacore T100/T200 instruments (GE Healthcare, Piscataway, N.J.) at 25° C. using an anti-Fc capture assay approach. Binding kinetic measurements were made in the assay buffer HBS-EP+: 10 mM Hepes, pH 7.4, 150 mM NaCl, 3 mM EDTA, 0.05% Tween 20). For example, approximately 8000 RU of anti-Fc (species specific) polyclonal antibody (Thermo Fisher Scientific Inc. Rockford, Ill.) diluted in 10 mM sodium acetate (pH 4.5) was directly immobilized across a CM5 research grade biosensor chip using a standard amine coupling kit according to manufacturer's instructions and procedures at 25 μg/ml. Unreacted moieties on the biosensor surface were blocked with ethanolamine. The test antibody to be captured as a ligand was diluted in running buffer to ˜0.5 μg/mL and injected over anti-Fc surface at a flow rate of 10 μL/min, CD98 binding and dissociation were observed under a continuous flow rate of 80 μL/min. Human and cynomolgus monkey CD98 ECDs, both with a C-terminal His-tag, are used for this study (Table 3). After each cycle the anti-Fc capture surface was regenerated using 10 mM Glycine-HCl, pH 1.5. During the assay, all measurements were referenced against the capture surface alone (i.e., with no captured test antibody) and buffer-only injections (no antigen) were used for double referencing. For kinetic analysis, rate equations derived from the 1:1 Langmuir binding model were fitted simultaneously, globally and with mass transfer term included to multiple referenced antigen binding curves using Biacore T100T200 Evaluation software.

Binder	Kd [nM]	koff [s⁻¹]	kon [M⁻¹ s⁻¹]
B6	0.83	3.7e-05	44000
B7	2.2	0.00012	52000
B8	1.1	8.1e-05	73000
B9	18	0.0012	65000
B10	2	0.00024	130000
B11	0.68	5.3e-05	77000
B12	15	0.003	200000
B13	0.76	0.00015	200000
B14	1.2	0.00015	130000
B15	1.1	0.00016	150000

Biological target: T4, Cynomolgus monkey CD98 ECD with …
Experiment: as above
Description: as §1

Binder	Kd [nM]	koff [s⁻¹]	kon [M⁻¹ s⁻¹]
B6	1.8	1.7e-05	9700
B7	11	0.00022	21000
B8	37	0.00086	24000
B9	72	0.0017	24000
B10	7.8	0.00049	62000
B11	3.3	9.6e-05	29000
B12	30	0.0012	38000
B13	3	0.00027	91000
B14	9.9	0.00051	51000
B15	5.9	0.00037	62000
